System: Escherichia coli TOP10
Assay: shrunken log2 fold change of peptide-encoding DNA abundance (4.5 h post-induction vs induction); higher = less antimicrobial activity (less host growth inhibition)
Conditions: time post-induction: 4.5 h; library: site-saturation at positions 5, 18, 19, 20
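Further: peptides expressed intracellularly from a pBAD plasmid library in pooled LB shake-flask culture, induced with 0.3% L-arabinose, DNA abundance read by NGS, three biological replicates, DESeq2 with apeglm shrinkage.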

Row | Sequence | shrunken log2 fold change
1 | RRIRWRPPRLPRPRPRPENDPRP | -0.0396
2 | RRIRARPPRLPRPRPRPQNNPRP | -0.29
3 | RRIRLRPPRLPRPRPRPYESPRP | -0.957
4 | RRIRDRPPRLPRPRPRPPLPPRP | 0.737
5 | RRIRKRPPRLPRPRPRPFCSPRP | -0.00787
6 | RRIRSRPPRLPRPRPRPPNNPRP | -0.404
7 | RRIRWRPPRLPRPRPRPPPKPRP | 0.945
8 | RRIRIRPPRLPRPRPRPRVAPRP | 0.386
9 | RRIRQRPPRLPRPRPRPMWYPRP | -0.298
10 | RRIRQRPPRLPRPRPRPTIEPRP | 0.0419
11 | RRIRGRPPRLPRPRPRPSNYPRP | -0.0111
12 | RRIRLRPPRLPRPRPRPQNKPRP | -0.432
13 | RRIRARPPRLPRPRPRPHDYPRP | 0.141
14 | RRIRYRPPRLPRPRPRPVCHPRP | -0.583
15 | RRIRVRPPRLPRPRPRPTIRPRP | 0.0315
16 | RRIRVRPPRLPRPRPRPERMPRP | -0.0652
17 | RRIRCRPPRLPRPRPRPRCAPRP | 0.346
18 | RRIRCRPPRLPRPRPRPDLGPRP | 0.43
19 | RRIRLRPPRLPRPRPRPCNDPRP | -0.101
20 | RRIRWRPPRLPRPRPRPEEDPRP | 0.00839
21 | RRIRNRPPRLPRPRPRPQPDPRP | -0.0718
22 | RRIRDRPPRLPRPRPRPHSWPRP | 0.05
23 | RRIRERPPRLPRPRPRPKYCPRP | -0.368
24 | RRIRWRPPRLPRPRPRPCEYPRP | -0.379
25 | RRIRTRPPRLPRPRPRPDLDPRP | 0.145

Row | Sequence | shrunken log2 fold change
26 | RRIRFRPPRLPRPRPRPDNHPRP | -0.232
27 | RRIRKRPPRLPRPRPRPITKPRP | -0.0212
28 | RRIRQRPPRLPRPRPRPQTPPRP | 0.0705
29 | RRIRFRPPRLPRPRPRPWMDPRP | -0.347
30 | RRIRERPPRLPRPRPRPLYAPRP | -0.101
31 | RRIRRRPPRLPRPRPRPWVNPRP | -0.0334
32 | RRIRMRPPRLPRPRPRPLTTPRP | 1.06
33 | RRIRMRPPRLPRPRPRPPSLPRP | 0.619
34 | RRIRFRPPRLPRPRPRPDRMPRP | -0.00758
35 | RRIRPRPPRLPRPRPRPCTPPRP | -0.167
36 | RRIRWRPPRLPRPRPRPGDGPRP | 0.881
37 | RRIRVRPPRLPRPRPRPRQRPRP | 0.622
38 | RRIRGRPPRLPRPRPRPIHNPRP | -0.268
39 | RRIRKRPPRLPRPRPRPEPSPRP | 0.956
40 | RRIRLRPPRLPRPRPRPYREPRP | -0.134
41 | RRIRHRPPRLPRPRPRPKNTPRP | -0.497
42 | RRIRQRPPRLPRPRPRPHFDPRP | -0.000826
43 | RRIRQRPPRLPRPRPRPTCFPRP | 0.132
44 | RRIRNRPPRLPRPRPRPNGWPRP | -0.0113
45 | RRIRARPPRLPRPRPRPGFQPRP | 0.092
46 | RRIRMRPPRLPRPRPRPQLKPRP | 1.42
47 | RRIRNRPPRLPRPRPRPQTGPRP | -0.505
48 | RRIRRRPPRLPRPRPRPVLQPRP | 0.0941
49 | RRIRFRPPRLPRPRPRPACQPRP | -0.0497
50 | RRIRMRPPRLPRPRPRPCSDPRP | 0.0242

Row | Sequence | shrunken log2 fold change
51 | RRIRWRPPRLPRPRPRPKGCPRP | -0.00617
52 | RRIRYRPPRLPRPRPRPGGWPRP | 0.645
53 | RRIRKRPPRLPRPRPRPDTCPRP | 0.0482
54 | RRIRERPPRLPRPRPRPVSRPRP | 0.23
55 | RRIRIRPPRLPRPRPRPVCQPRP | -0.202
56 | RRIRGRPPRLPRPRPRPHGVPRP | 0.00437
57 | RRIRGRPPRLPRPRPRPKCVPRP | 0.505
58 | RRIRDRPPRLPRPRPRPSTDPRP | 0.0145
59 | RRIRWRPPRLPRPRPRPNFMPRP | 0.0497
60 | RRIRRRPPRLPRPRPRPRDCPRP | 0.177
61 | RRIRGRPPRLPRPRPRPHMIPRP | 0.0265
62 | RRIRHRPPRLPRPRPRPPHTPRP | 0.249
63 | RRIRWRPPRLPRPRPRPIRDPRP | 0.0528
64 | RRIRMRPPRLPRPRPRPPGSPRP | 0.904
65 | RRIRLRPPRLPRPRPRPHPLPRP | -0.152
66 | RRIRWRPPRLPRPRPRPVNHPRP | -0.191
67 | RRIRWRPPRLPRPRPRPCSKPRP | -0.0575
68 | RRIRQRPPRLPRPRPRPIGSPRP | -0.00968
69 | RRIRKRPPRLPRPRPRPEHPPRP | 0.822
70 | RRIRVRPPRLPRPRPRPLCAPRP | 0.17
71 | RRIRKRPPRLPRPRPRPHSPPRP | 0.16
72 | RRIRSRPPRLPRPRPRPVIRPRP | -0.213
73 | RRIRMRPPRLPRPRPRPVPNPRP | 0.12
74 | RRIRVRPPRLPRPRPRPHIPPRP | -0.602
75 | RRIRMRPPRLPRPRPRPVGGPRP | 0.961

Row | Sequence | shrunken log2 fold change
76 | RRIRCRPPRLPRPRPRPESGPRP | 0.0145
77 | RRIRWRPPRLPRPRPRPQQQPRP | 0.108
78 | RRIRNRPPRLPRPRPRPTSCPRP | -0.173
79 | RRIRPRPPRLPRPRPRPKEQPRP | 0.183
80 | RRIRARPPRLPRPRPRPKKNPRP | 0.441
81 | RRIRYRPPRLPRPRPRPGMVPRP | 2
82 | RRIRWRPPRLPRPRPRPMRQPRP | -0.0376
83 | RRIRLRPPRLPRPRPRPSHVPRP | -0.0453
84 | RRIRARPPRLPRPRPRPFHGPRP | 0.0917
85 | RRIRQRPPRLPRPRPRPCDLPRP | -0.265
86 | RRIRLRPPRLPRPRPRPAHHPRP | 0.0653
87 | RRIRVRPPRLPRPRPRPHNMPRP | -0.389
88 | RRIRPRPPRLPRPRPRPAFMPRP | -0.0434
89 | RRIRERPPRLPRPRPRPNNGPRP | -0.0529
90 | RRIRDRPPRLPRPRPRPCFTPRP | 0.0373
91 | RRIRLRPPRLPRPRPRPCFEPRP | -0.0179
92 | RRIRIRPPRLPRPRPRPEARPRP | 0.312
93 | RRIRRRPPRLPRPRPRPKFRPRP | -0.0588
94 | RRIRLRPPRLPRPRPRPSVFPRP | -0.364
95 | RRIRTRPPRLPRPRPRPTEVPRP | -0.199
96 | RRIRARPPRLPRPRPRPFGAPRP | 0.929
97 | RRIRDRPPRLPRPRPRPESGPRP | 0.778
98 | RRIRGRPPRLPRPRPRPCEMPRP | 0.852
99 | RRIRDRPPRLPRPRPRPWRCPRP | 0.26
100 | RRIRKRPPRLPRPRPRPIRQPRP | 0.0556

Row | Sequence | shrunken log2 fold change
101 | RRIRARPPRLPRPRPRPDCLPRP | 0.948
102 | RRIRPRPPRLPRPRPRPQQNPRP | 0.076
103 | RRIRGRPPRLPRPRPRPLLSPRP | 1.04
104 | RRIRRRPPRLPRPRPRPVNAPRP | 0.37
105 | RRIRFRPPRLPRPRPRPITEPRP | -0.0279
106 | RRIRYRPPRLPRPRPRPSAHPRP | -0.117
107 | RRIRFRPPRLPRPRPRPVDMPRP | 0.00603
108 | RRIRFRPPRLPRPRPRPPQTPRP | 0.473
109 | RRIRFRPPRLPRPRPRPEISPRP | -0.048
110 | RRIRTRPPRLPRPRPRPSWLPRP | 0.11
111 | RRIRVRPPRLPRPRPRPCAKPRP | 0.128
112 | RRIRKRPPRLPRPRPRPTMMPRP | 0.316
113 | RRIRSRPPRLPRPRPRPFQCPRP | -0.461
114 | RRIRDRPPRLPRPRPRPGKMPRP | 0.0346
115 | RRIRIRPPRLPRPRPRPQKGPRP | -0.33
116 | RRIRYRPPRLPRPRPRPAWIPRP | -0.259
117 | RRIRPRPPRLPRPRPRPMLGPRP | 0.252
118 | RRIRARPPRLPRPRPRPQQNPRP | 0.166
119 | RRIRSRPPRLPRPRPRPNVQPRP | -0.335
120 | RRIRFRPPRLPRPRPRPHRLPRP | 0.0835
121 | RRIRRRPPRLPRPRPRPGYTPRP | 0.243
122 | RRIRVRPPRLPRPRPRPVVNPRP | -0.0959
123 | RRIRIRPPRLPRPRPRPNECPRP | -0.0258
124 | RRIRERPPRLPRPRPRPFCQPRP | -0.528
125 | RRIRFRPPRLPRPRPRPSQIPRP | -0.253

Row | Sequence | shrunken log2 fold change
126 | RRIRYRPPRLPRPRPRPKWRPRP | 0.0685
127 | RRIRTRPPRLPRPRPRPKDCPRP | 0.0164
128 | RRIRFRPPRLPRPRPRPCVCPRP | 0.143
129 | RRIRFRPPRLPRPRPRPEHFPRP | -0.213
130 | RRIRCRPPRLPRPRPRPCPFPRP | -0.332
131 | RRIRNRPPRLPRPRPRPIRHPRP | -0.0817
132 | RRIRQRPPRLPRPRPRPVTPPRP | -0.00477
133 | RRIRERPPRLPRPRPRPTYKPRP | -0.579
134 | RRIRKRPPRLPRPRPRPGSSPRP | -0.0653
135 | RRIRTRPPRLPRPRPRPTIWPRP | 0.03
136 | RRIRHRPPRLPRPRPRPSHHPRP | -0.267
137 | RRIRGRPPRLPRPRPRPKIWPRP | 0.64
138 | RRIRYRPPRLPRPRPRPMSWPRP | -0.0422
139 | RRIRFRPPRLPRPRPRPPIAPRP | 0.31
140 | RRIRPRPPRLPRPRPRPPHYPRP | 0.457
141 | RRIRRRPPRLPRPRPRPPTRPRP | 0.688
142 | RRIRHRPPRLPRPRPRPQKDPRP | 0.0122
143 | RRIRVRPPRLPRPRPRPLSVPRP | -0.0714
144 | RRIRIRPPRLPRPRPRPRSPPRP | 0.0527
145 | RRIRTRPPRLPRPRPRPFLKPRP | 0.092
146 | RRIRARPPRLPRPRPRPCNDPRP | -0.0678
147 | RRIRARPPRLPRPRPRPYQVPRP | -0.327
148 | RRIRWRPPRLPRPRPRPPKDPRP | 0.0853
149 | RRIRYRPPRLPRPRPRPWLNPRP | -0.367
150 | RRIRQRPPRLPRPRPRPCPTPRP | -0.13
